Experiments:
[1] = molecular target: HLA-A*26:01; test: IEDB peptide-MHC binding, purified MHC/competitive/fluorescence; filed as Kd, often an IC50 or EC50 that approximates it; ≥ and ≤ were set here for values at or beyond the usual limits of such assays; conditions: source organism: Shigella boydii CDC 3083-94
[2] = molecular target: HLA-A*32:07; test: as above; conditions: source organism: Shigella boydii CDC 3083-94
[3] = molecular target: HLA-B*51:01; test: as above
[4] = molecular target: HLA-B*18:01; test: as above; conditions: source organism: Shigella boydii CDC 3083-94
[5] = molecular target: HLA-B*27:20; test: as above; conditions: source organism: Shigella boydii CDC 3083-94
[6] = molecular target: HLA-A*29:02; test: as above; conditions: source organism: Shigella boydii CDC 3083-94
[7] = molecular target: HLA-B*45:06; test: as above
[8] = molecular target: HLA-A*02:19; test: as above; conditions: source organism: Shigella boydii CDC 3083-94
[9] = molecular target: HLA-B*15:42; test: as above
[10] = molecular target: HLA-B*27:03; test: as above; conditions: source organism: Shigella boydii CDC 3083-94
[11] = molecular target: HLA-A*32:15; test: as above; conditions: source organism: Shigella boydii CDC 3083-94
[12] = molecular target: HLA-A*03:19; test: as above; conditions: source organism: Shigella boydii CDC 3083-94
[13] = molecular target: HLA-B*57:01; test: as above; conditions: source organism: Shigella boydii CDC 3083-94
[14] = molecular target: HLA-A*02:01; test: as above; conditions: source organism: Shigella boydii CDC 3083-94
[15] = molecular target: HLA-C*14:02; test: as above
[16] = molecular target: HLA-B*40:13; test: as above; conditions: source organism: Shigella boydii CDC 3083-94
[17] = molecular target: HLA-B*83:01; test: as above
[18] = molecular target: HLA-C*06:02; test: IEDB peptide-MHC binding, purified MHC/direct/fluorescence; filed as Kd, often an IC50 or EC50 that approximates it; ≥ and ≤ were set here for values at or beyond the usual limits of such assays; conditions: source organism: Shigella boydii CDC 3083-94
[19] = molecular target: HLA-A*11:01; test: IEDB peptide-MHC binding, purified MHC/competitive/fluorescence; filed as Kd, often an IC50 or EC50 that approximates it; ≥ and ≤ were set here for values at or beyond the usual limits of such assays; conditions: source organism: Giardia lamblia ATCC 50803
[20] = molecular target: HLA-A*68:23; test: as above; conditions: source organism: Giardia lamblia ATCC 50803
[21] = molecular target: HLA-B*58:01; test: as above; conditions: source organism: Giardia lamblia ATCC 50803
[22] = molecular target: HLA-B*44:02; test: as above; conditions: source organism: Giardia lamblia ATCC 50803
[23] = molecular target: HLA-B*40:01; test: as above; conditions: source organism: Giardia lamblia ATCC 50803
[24] = molecular target: HLA-A*30:02; test: as above; conditions: source organism: Giardia lamblia ATCC 50803
[25] = molecular target: HLA-B*08:01; test: as above; conditions: source organism: Giardia lamblia ATCC 50803
[26] = molecular target: HLA-B*53:01; test: as above; conditions: source organism: Giardia lamblia ATCC 50803
[27] = molecular target: HLA-B*27:05; test: as above; conditions: source organism: Giardia lamblia ATCC 50803
[28] = molecular target: HLA-B*14:02; test: as above; conditions: source organism: Giardia lamblia ATCC 50803
[29] = molecular target: HLA-B*07:02; test: as above; conditions: source organism: Giardia lamblia ATCC 50803
[30] = molecular target: HLA-A*01:01; test: as above; conditions: source organism: Giardia lamblia ATCC 50803
[31] = molecular target: HLA-A*23:01; test: IEDB peptide-MHC binding, purified MHC/direct/fluorescence; filed as Kd, often an IC50 or EC50 that approximates it; ≥ and ≤ were set here for values at or beyond the usual limits of such assays; conditions: source organism: Giardia lamblia ATCC 50803
[32] = molecular target: HLA-A*24:03; test: as above; conditions: source organism: Giardia lamblia ATCC 50803
[33] = molecular target: HLA-B*18:01; test: as above; conditions: source organism: Giardia lamblia ATCC 50803
[34] = molecular target: HLA-A*03:01; test: as above; conditions: source organism: Giardia lamblia ATCC 50803
[35] = molecular target: HLA-C*05:01; test: as above; conditions: source organism: Giardia lamblia ATCC 50803
[36] = molecular target: HLA-A*66:01; test: as above; conditions: source organism: Giardia lamblia ATCC 50803
[37] = molecular target: HLA-A*29:02; test: as above; conditions: source organism: Giardia lamblia ATCC 50803
[38] = molecular target: HLA-A*68:02; test: as above; conditions: source organism: Giardia lamblia ATCC 50803
[39] = molecular target: HLA-B*27:03; test: as above; conditions: source organism: Giardia lamblia ATCC 50803
[40] = molecular target: HLA-B*57:01; test: as above; conditions: source organism: Giardia lamblia ATCC 50803
[41] = molecular target: HLA-C*12:03; test: as above; conditions: source organism: Giardia lamblia ATCC 50803
[42] = molecular target: HLA-B*14:02; test: as above; conditions: source organism: Homo sapiens
[43] = source organism: Shigella boydii CDC 3083-94
[44] = source organism: Giardia lamblia ATCC 50803

## GMMRWCMPV
[1]
  Kd: ≥ 20000 nM
[2]
  Kd: 5.2 nM
[3]; [43]
  Kd: ≥ 20000 nM
[4]
  Kd: ≥ 20000 nM
[5]
  Kd: 0.4 nM
[6]
  Kd: 51.5 nM
[7]; [43]
  Kd: 69.2 nM
[8]
  Kd: 0.2 nM
[9]; [43]
  Kd: 16900 nM
[10]
  Kd: ≥ 20000 nM
[11]
  Kd: 813 nM
[12]
  Kd: 1130 nM
[13]
  Kd: ≥ 20000 nM
[14]
  Kd: ≤ 0.1 nM
[15]; [43]
  Kd: 93.6 nM
[16]
  Kd: 201 nM
[17]; [43]
  Kd: ≥ 5000 nM
[18]
  Kd: ≥ 20000 nM

## MTYLDGHPV
[19]
  Kd: 138 nM
[20]
  Kd: ≤ 0.1 nM
[21]
  Kd: ≥ 5000 nM
[22]
  Kd: ≥ 5000 nM
[23]
  Kd: ≥ 5000 nM
[24]
  Kd: ≥ 5000 nM
[3]; [44]
  Kd: ≥ 5000 nM
[25]
  Kd: ≥ 5000 nM
[7]; [44]
  Kd: ≥ 5000 nM
[9]; [44]
  Kd: ≥ 5000 nM
[26]
  Kd: ≥ 5000 nM
[15]; [44]
  Kd: 30.3 nM
[27]
  Kd: ≥ 5000 nM
[28]
  Kd: ≥ 5000 nM
[17]; [44]
  Kd: ≥ 5000 nM
[29]
  Kd: ≥ 5000 nM
[30]
  Kd: ≥ 5000 nM
[31]
  Kd: ≥ 20000 nM
[32]
  Kd: ≥ 20000 nM
[33]
  Kd: ≥ 20000 nM
[34]
  Kd: ≥ 20000 nM
[35]
  Kd: ≥ 20000 nM
[36]
  Kd: 134 nM
[37]
  Kd: 6 nM
[38]
  Kd: ≤ 1 nM
[39]
  Kd: ≥ 20000 nM
[40]
  Kd: ≥ 20000 nM
[41]
  Kd: 153 nM

## NEVLHQEL
[42]
  Kd: 294 nM

Source: the Immune Epitope Database (IEDB)
